PMC4125734 (Molecular & Cellular Proteomics : MCP, 2014)
Values joined by “and” are separate entries in the source; they are usually repeats but may differ in a detail not shown here. Identical values can stand only once. Like-named read-outs stand apart in the source and are kept apart here.

Tests used:
[1] = biological target: 14-3-3γ (UniProt P61981); experiment: native MS
[2] = biological target: 14-3-3γ (UniProt P61981); experiment: negative-stain electron microscopy
[3] = biological target: 14-3-3γ (UniProt P61981); experiment: native MS; remark: listed apart in the source
[4] = biological target: 14-3-3γ (UniProt P61981); experiment: SPR
[5] = biological target: 14-3-3γ (UniProt P61981); experiment: native MS; remark: listed apart in the source
[6] = biological target: 14-3-3γ (UniProt P61981); experiment: negative-stain electron microscopy; remark: listed apart in the source
[7] = biological target: GST-14-3-3γ (UniProt P61981); experiment: SPR
[8] = biological target: GST-14-3-3γ (UniProt P61981); experiment: SPR; remark: listed apart in the source
[9] = biological target: GST-14-3-3γ (UniProt P61981); experiment: SPR; remark: listed apart in the source
[10] = biological target: the molecule itself; experiment: native MS

| Molecule | stoichiometry N (14-3-3γ dimers per TH tetramer) [1] | stoichiometry N (14-3-3γ dimers per TH tetramer) [2] | stoichiometry N (14-3-3γ dimers per TH tetramer) [3] | dissociation rate constant of the smaller, rapidly dissociating population [4] [s⁻¹] | kon [4] [M⁻¹ s⁻¹] | stoichiometry N (14-3-3γ dimers per TH tetramer) [5] | stoichiometry N (14-3-3γ dimers per TH tetramer) [6] | kon [7] [M⁻¹ s⁻¹] | koff [8] [s⁻¹] | kon [8] [M⁻¹ s⁻¹] | Kd [4] [nM] | koff [4] [s⁻¹] | kon [9] [M⁻¹ s⁻¹] | stoichiometry N [10] |
| --- | --- | --- | --- | --- | --- | --- | --- | --- | --- | --- | --- | --- | --- | --- |
| human tyrosine hydroxylase isoform 1 phosphorylated on Ser19 (TH-pS19), full stoichiometry (from UniProt P07101-3 1-497) (enzyme) | 1 | 1 | 2 | 0.018 | 144000 | 2 | 2 | – | – | – | – | – | – | – |
| 14-3-3γ (natural protein) VDREQLVQKARLAEQAERYDDMAAAMKNVTELNEPLSNEERNLLSVAYKNVVGARRSSWRVISSIEQKTSADGNEKKIEMVRAYREKIEKELEAVCQDVLSLLDNYLIKNCSETQYESKVFYLKMKGDYYRYLAEVATGEKRATVVESSEKAYSEAHEISKEHMQPTHPIRLGLALNYSVFYYEIQNAPEQACHLAKTAFDDAIAELDTLNEDSYKDSTLIMQLLRDNLTLWTSDQQDDDGGEGNN | – | – | – | – | – | – | – | – | – | – | – | – | – | 2 |

More lines, main results first:

| stoichiometry N (14-3-3γ dimers per TH tetramer) [1] | stoichiometry N (14-3-3γ dimers per TH tetramer) [2] | stoichiometry N (14-3-3γ dimers per TH tetramer) [3] | dissociation rate constant of the smaller, rapidly dissociating population [4] [s⁻¹] | kon [4] [M⁻¹ s⁻¹] | stoichiometry N (14-3-3γ dimers per TH tetramer) [5] | stoichiometry N (14-3-3γ dimers per TH tetramer) [6] | kon [7] [M⁻¹ s⁻¹] | koff [8] [s⁻¹] | kon [8] [M⁻¹ s⁻¹] | Kd [4] [nM] | koff [4] [s⁻¹] | kon [9] [M⁻¹ s⁻¹] | Molecule | stoichiometry N [10] |
| --- | --- | --- | --- | --- | --- | --- | --- | --- | --- | --- | --- | --- | --- | --- |
| – | – | 1 and 2 | 0.019 | 780000 | – | – | 1.8e+06 | 0.00063 to 0.00069 | 2.4e+06 | 0.57 | 0.00045 to 0.00051 | 1.2e+06 | human tyrosine hydroxylase isoform 1 phosphorylated on Ser19 to low stoichiometry (TH-pS19L) (from UniProt P07101-3 1-497) (enzyme) | – |
| – | – | 2 | 0.018 | 159000 | – | – | – | – | – | 2.1 | 0.00036 | – | human tyrosine hydroxylase isoform 1 phosphorylated on both Ser19 and Ser40 (TH-pS19pS40) (from UniProt P07101-3 1-497) (enzyme) | – |
